In this test the target is N-terminal GST-like domain of P. berghei glutamyl-tRNA synthetase (ERS-N) (P. berghei). Kind of test: SEC-SAXS. A general note: Size exclusion chromatography separates by hydrodynamic size, large species first.

“N-terminal GST-like domain of P. berghei glutamyl-tRNA synthetase (ERS-N) (from UniProt A0A509AR09 1-240) (domain or fragment)”: the percent of dimers (OLIGOMER fit) was 77.9% and the percent of tetramers (OLIGOMER fit) worked out at 22.1%.
